Results taken from publication PMC6888979 (The Journal of Experimental Medicine, 2019).

Molecular target: the molecule itself

B1: soluble recombinant ectodomain of murine FIBCD1 (mFIBCD1^Ecto) (domain or fragment)
chain: NHTHTPGTAPPPIVSTGTAGANSALVTVERADSSHLSLLIDPRCPDLTDSFARLEGIQASILRALSEHQAQPRLDGAPELLDALADQLPRLLTRASELQAECAGLRKGHSLLGQGLSTLQSEQGRLIQLLSESQGHMAHLVNSVSDVLEALQRERGLGRPRVKADLQRAPSRGARPRGCANGSRPRDCLDVLLSGQQDDGVYSIFPTHYPAGFQVYCDMRTDGGGWTVFQRREDGSVNFFRGWEAYREGFGKLTGEHWLGLKRIHALTTQAAYELHVDLEDFDNGTAYAHYGSFGVGLFSVDPEEDGYPLTVADYSGTAGDSLLKHSGMRFTTKDRDSDHSENNCAAFYRGAWWYRNCHTSNLNGQYLRGAHASYADGVEWSSWTGWQYSLKFSEMKIRPVREDR
stoichiometry N: 4
